We go through 13 molecules from patent US20210032351A1 (XDCEXPLORER SHANGHAI, published 2021).

Assay [1] deals with T1, human EGFRvIII-hFc protein (human, UniProt P00533 25-645).
T1 construct: extracellular domain; also called immunogen A; hFc-tagged EGFRvIII protein; not shown: human IgG Fc fragment (hFc) of the pCpC vector
Description: ELISA, EGFRvIII-hFc coated. As to the method: The purified humanized anti-EGFRvIII antibody obtained in example 12 is reacted with a human EGFRvIII-hFc protein.
The purified immunogen A (EGFRvIII-hFc) obtained in example 1 (for the preparation method, see step (I) in example 1) is diluted with PBS to a final concentration of 1.0 μg/mL, and then added to a 96-well ELISA plate at 100 μl/well. The plate is sealed with a plastic film and incubated at 4° C. overnight. The next day, the plate is washed twice with a plate washing solution [PBS+0.01% (v/v) Tween20], and added with a blocking solution [PBS+0.01% (v/v) Tween20+1% (w/w) BSA] for blocking 2 hours at room temperature. […] The plate is incubated for 2 hours at 37° C., and then washed 3 times with the plate washing solution [PBS+0.01% (v/v) Tween20]. The plate is added with an HRP (horseradish peroxidase) labeled secondary antibody (purchased from Sigma), incubated at 37° C. for 2 hours, and then washed 3 times with the plate washing solution [PBS+0.01% (v/v) Tween20]. The plate is added with 100 μl of TMB substrate/well, incubated for 30 minutes at room temperature, and then added with 100 μl of stopping solution (1.0N HCl)/well. A450 nm value is read using an ELISA plate reader (SpectraMax 384plus, purchased from Molecular Device).
(An ELISA detects its analyte on a solid surface through an enzyme-linked reagent.)

The target in assay [2] is T2, human EGFRvIII protein on the cell surface (human, UniProt P00533 25-1210).
T2 construct: whole, on cells; the cell line is named under assay; also called hEGFRvIII; U87MG-hEGFRvIII
Description: FACS on U87MG-EGFRvIII cells. On the procedure: The preparation of U87MG-EGFRvIII required for FACS detection is as described in the preparation of the immunogen B in example 1. Normal human primary hepatocytes are purchased from BioreclamationIVT, and A431 tumor cells are purchased from ATCC. The recovered hepatocytes are directly used for FACS detection, and the recovered U87MG-EGFRvIII and A431 cells are subjected to an expanded culture to 90% confluence in a T-75 cell culture flask; the medium is sucked out, and the cells are washed twice with a HBSS buffer (Hanks Balanced Salt Solution) (purchased from Invitrogen), and then treated with an enzyme-free cell dissociation solution (Versene solution: purchased from Life Technology) and collected. The cells are washed twice with the HBSS buffer and are counted, and then the cells are diluted with the HBSS buffer to 2×10⁶ cells/ml, added with 1% goat serum blocking solution, with the percentage being the mass percentage, and incubated on ice for 30 minutes, and then centrifugally washed twice with the HBSS buffer. The collected cells are resuspended to 2×10⁶ cells/mL with an FACS buffer (HBSS+2% FBS, with the percentage being the volume percentage), added to a 96-well FACS reaction plate at 100 μL/well, then added with 100 μL/well of the purified EGFRvIII antibody (samples to be tested) obtained in example 12, and incubated on ice for 2 hours. The plate is centrifugally washed twice with the FACS buffer, added with 100 μL/well of a 1:1000 diluted fluorescence (Alexa 488) labeled secondary antibody (purchased from Invitrogen), and incubated on ice for 1 hour. The plate is centrifugally washed 3 times with the FACS buffer, added with 100 μL/well of a fixing solution [4% (v/v) paraformaldehyde] to resuspend the cells, and centrifugally washed twice with the FACS buffer after 10 minutes. The cells are resuspended in 100 μL of the FACS buffer, and the results are detected and analyzed by FACS (FACS Calibur, purchased from BD). Data analysis is performed by using the software (CellQuest) to obtain the mean fluorescence intensity (MFI) of the cells. Data is further analyzed by using the software (GraphPad Prism5) to perform data fitting and calculate EC50.

B1: Humanized antibody h63A10A7-17 (antibody, human IgG1, V domains shown)
VH: QVQLVQSGAEVKKPGASVKVSCKASGYTFISFTMHWVKQRPGQGLEWIGYINPNSGYTKYNQKFKDKATLTRDTSTSTVYMELSSLRSEDTAVYYCTRGGGRGFAYWGQGTLVTVSS
VL: DILMTQSPSSLSASVGDRVTITCHASQDINSNIGWLQQKPGKSFKALIYHGTNLEDGVPSRFSGSGSGADYTLTISSLQPEDFATYYCVQYAQFPFTFGQGTKLEIK
notes: also called VH-g4/VL-g4
One may read the EC50 as the concentration at which the effect is half-maximal. Read a high EC50 as lower potency in that assay. Take B1: in assay [1], a half-maximal effect (EC50) was put at 0.01 nM and the “Maximum OD450 value” turned out to be 3.71 OD450.

B2: Humanized antibody h63A10A7-20 (antibody, human IgG1, V domains shown)
VH: QVQLVQSGAEVKKPGASVKVSCKASGYTFISFTMHWVRQAPGQGLEWIGYINPNSGYTKYNQKFKDKATLTRDTSTSTVYMELSSLRSEDTAVYYCTRGGGRGFAYWGQGTLVTVSS
VL: DILMTQSPSSLSASVGDRVTITCHASQDINSNIGWLQQKPGKSFKALIYHGTNLEDGVPSRFSGSGSGADYTLTISSLQPEDFATYYCVQYAQFPFTFGQGTKLEIK
notes: also called VH-g7/VL-g4
Take B2: in assay [2], it took 1.56 nM to reach a half-maximal effect (EC50) and the “Maximum mean fluorescence intensity” value worked out at 22600 MFI. Besides, in assay [1], the EC50 is 0.18 nM and the “Maximum OD450 value” came out at 3.55 OD450.

B3: Humanized antibody h63A10A7-24 (antibody, human IgG1, V domains shown)
VH: QVQLVQSGAEVKKPGASVKVSCKASGYTFISFTMHWVKQRPGQGLEWIGYINPNSGYTKYNQKFKDKATLTRDTSTSTVYMELSSLRSEDTAVYYCTRGGGRGFAYWGQGTLVTVSS
VL: DILMTQSPSSLSASVGDRVTITCHASQDINSNIGWLQQKPGKSFKALIYHGTNLEDGVPSRFSGSGSGTDYTLTISSLQPEDFATYYCVQYAQFPFTFGQGTKLEIK
notes: also called VH-g4/VL-g6
As for B3, in assay [2], the response was half-maximal at 1.83 nM (EC50) and the “Maximum mean fluorescence intensity” value is 24200 MFI. Also, in assay [1], the EC50 stood at 0.15 nM and the “Maximum OD450 value” came to 3.67 OD450.

B4: Humanized antibody h63A10A7-26 (antibody, human IgG1, V domains shown)
VH: QVQLVQSGAEVKKPGASVKVSCKASGYTFISFTMHWVKQRPGQGLEWIGYINPNSGYTKYNQKFKDKATLTRDTSTSTVYMELSSLRSEDTAVYYCTRGGGRGFAYWGQGTLVTVSS
VL: DILMTQSPSSLSASVGDRVTITCHASQDINSNIGWYQQKPGKSFKALIYHGTNLEDGVPSRFSGSGSGADFTLTISSLQPEDFATYYCVQYAQFPFTFGQGTKLEIK
notes: also called VH-g4/VL-g8
B4: in assay [2], a half-maximal response (EC50) required 1.79 nM and the “Maximum mean fluorescence intensity” value came out at 23700 MFI. In assay [1], the EC50 is 0.16 nM and the “Maximum OD450 value” was 3.65 OD450.

B5: Humanized antibody h63A10A7-39 (antibody, human IgG1, V domains shown)
VH: QVQLVQSGAEVKKPGASVKVSCKASGYTFISFTMHWVKQRPGQGLEWIGYINPNSGYTKYNQKFKDRVTLTRDTSTSTVYMELSSLRSEDTAVYYCTRGGGRGFAYWGQGTLVTVSS
VL: DIQMTQSPSSLSASVGDRVTITCHASQDINSNIGWLQQKPGKSFKALIYHGTNLEDGVPSRFSGSGSGADYTLTISSLQPEDFATYYCVQYAQFPFTFGQGTKLEIK
notes: also called VH-g8/VL-g3
Consider B5, for which, in assay [2], the EC50 amounted to 4.1 nM and the “Maximum mean fluorescence intensity” value amounted to 10700 MFI. Moreover, in assay [1], the midpoint of the response, the EC50, lay at 0.24 nM and the “Maximum OD450 value” is 3.6 OD450.

B6: Humanized antibody h63A10A7-22 (antibody, human IgG1, V domains shown)
VH: QVQLVQSGAEVKKPGASVKVSCKASGYTFISFTMHWVKQRPGQGLEWIGYINPNSGYTKYNQKFKDKATLTRDTSTSTVYMELSSLRSEDTAVYYCTRGGGRGFAYWGQGTLVTVSS
VL: DIQMTQSPSSLSASVGDRVTITCHASQDINSNIGWLQQKPGKSFKALIYHGTNLEDGVPSRFSGSGSGADYTLTISSLQPEDFATYYCVQYAQFPFTFGQGTKLEIK
notes: also called VH-g4/VL-g3
B6: in assay [2], a half-maximal response (EC50) required 1.58 nM and the “Maximum mean fluorescence intensity” value amounted to 23500 MFI. For the same molecule, in assay [1], the EC50 was determined as 0.15 nM and the “Maximum OD450 value” was determined as 3.57 OD450.

B7: Humanized antibody h63A10A7-19 (antibody, human IgG1, V domains shown)
VH: QVQLVQSGAEVKKPGASVKVSCKASGYTFISFTMHWVKQRPGQGLEWMGYINPNSGYTKYNQKFKDKATMTRDTSTSTVYMELSSLRSEDTAVYYCTRGGGRGFAYWGQGTLVTVSS
VL: DILMTQSPSSLSASVGDRVTITCHASQDINSNIGWLQQKPGKSFKALIYHGTNLEDGVPSRFSGSGSGADYTLTISSLQPEDFATYYCVQYAQFPFTFGQGTKLEIK
notes: also called VH-g6/VL-g4
For B7, in assay [2], the EC50 worked out at 3.27 nM and the “Maximum mean fluorescence intensity” value came to 21100 MFI. Also, in assay [1], the midpoint of the response, the EC50, lay at 0.17 nM and the “Maximum OD450 value” is 3.63 OD450.

B8: Humanized antibody h63A10A7-38 (antibody, human IgG1, V domains shown)
VH: QVQLVQSGAEVKKPGASVKVSCKASGYTFISFTMHWVRQAPGQGLEWIGYINPNSGYTKYNQKFKDKATLTRDTSTSTVYMELSSLRSEDTAVYYCTRGGGRGFAYWGQGTLVTVSS
VL: DIQMTQSPSSLSASVGDRVTITCHASQDINSNIGWLQQKPGKSFKALIYHGTNLEDGVPSRFSGSGSGADYTLTISSLQPEDFATYYCVQYAQFPFTFGQGTKLEIK
notes: also called VH-g7/VL-g3
In the case of B8, in assay [2], the EC50 was determined as 3.03 nM and the “Maximum mean fluorescence intensity” value came to 10700 MFI. Besides, in assay [1], the EC50 came out at 0.22 nM and the “Maximum OD450 value” was 3.7 OD450.

B9: Humanized antibody h63A10A7-25 (antibody, human IgG1, V domains shown)
VH: QVQLVQSGAEVKKPGASVKVSCKASGYTFISFTMHWVKQRPGQGLEWIGYINPNSGYTKYNQKFKDKATLTRDTSTSTVYMELSSLRSEDTAVYYCTRGGGRGFAYWGQGTLVTVSS
VL: DILMTQSPSSLSASVGDRVTITCHASQDINSNIGWYQQKPGKSFKALIYHGTNLEDGVPSRFSGSGSGADYTLTISSLQPEDFATYYCVQYAQFPFTFGQGTKLEIK
notes: also called VH-g4/VL-g7
Turning to B9, in assay [2], the EC50 was 1.32 nM and the “Maximum mean fluorescence intensity” value is 24700 MFI. For the same molecule, in assay [1], the EC50 turned out to be 0.17 nM and the “Maximum OD450 value” is 3.61 OD450.

B10: Humanized antibody h63A10A7-18 (antibody, human IgG1, V domains shown)
VH: QVQLVQSGAEVKKPGASVKVSCKASGYTFISFTMHWVKQRPGQGLEWIGYINPNSGYTKYNQKFKDKATLTADQSTSTAYMELSSLRSEDTAVYYCTRGGGRGFAYWGQGTLVTVSS
VL: DILMTQSPSSLSASVGDRVTITCHASQDINSNIGWLQQKPGKSFKALIYHGTNLEDGVPSRFSGSGSGADYTLTISSLQPEDFATYYCVQYAQFPFTFGQGTKLEIK
notes: also called VH-g5/VL-g4
B10: in assay [1], a half-maximal response (EC50) required 0.01 nM and the “Maximum OD450 value” worked out at 3.71 OD450.

B11: Humanized antibody h63A10A7-37 (antibody, human IgG1, V domains shown)
VH: QVQLVQSGAEVKKPGASVKVSCKASGYTFISFTMHWVKQRPGQGLEWMGYINPNSGYTKYNQKFKDKATMTRDTSTSTVYMELSSLRSEDTAVYYCTRGGGRGFAYWGQGTLVTVSS
VL: DIQMTQSPSSLSASVGDRVTITCHASQDINSNIGWLQQKPGKSFKALIYHGTNLEDGVPSRFSGSGSGADYTLTISSLQPEDFATYYCVQYAQFPFTFGQGTKLEIK
notes: also called VH-g6/VL-g3
Take B11: in assay [2], the response was half-maximal at 5.35 nM (EC50) and the “Maximum mean fluorescence intensity” value is 10200 MFI. For the same molecule, in assay [1], a half-maximal response (EC50) required 0.28 nM and the “Maximum OD450 value” amounted to 3.6 OD450.

B12: Humanized antibody h63A10A7-21 (antibody, human IgG1, V domains shown)
VH: QVQLVQSGAEVKKPGASVKVSCKASGYTFISFTMHWVKQRPGQGLEWIGYINPNSGYTKYNQKFKDRVTLTRDTSTSTVYMELSSLRSEDTAVYYCTRGGGRGFAYWGQGTLVTVSS
VL: DILMTQSPSSLSASVGDRVTITCHASQDINSNIGWLQQKPGKSFKALIYHGTNLEDGVPSRFSGSGSGADYTLTISSLQPEDFATYYCVQYAQFPFTFGQGTKLEIK
notes: also called VH-g8/VL-g4
Consider B12, for which, in assay [2], the 50% effective concentration (EC50) worked out at 2.34 nM and the “Maximum mean fluorescence intensity” value stood at 23500 MFI. In addition, in assay [1], it took 0.17 nM to reach a half-maximal effect (EC50) and the “Maximum OD450 value” was determined as 3.6 OD450.

B13: Humanized antibody h63A10A7-23 (antibody, human IgG1, V domains shown)
VH: QVQLVQSGAEVKKPGASVKVSCKASGYTFISFTMHWVKQRPGQGLEWIGYINPNSGYTKYNQKFKDKATLTRDTSTSTVYMELSSLRSEDTAVYYCTRGGGRGFAYWGQGTLVTVSS
VL: DILMTQSPSSLSASVGDRVTITCHASQDINSNIGWLQQKPGKAPKALIYHGTNLEDGVPSRFSGSGSGADYTLTISSLQPEDFATYYCVQYAQFPFTFGQGTKLEIK
notes: also called VH-g4/VL-g5
As to B13, in assay [2], it took 4.62 nM to reach a half-maximal effect (EC50) and the “Maximum mean fluorescence intensity” value came out at 20200 MFI. Moreover, in assay [1], the response was half-maximal at 0.33 nM (EC50) and the “Maximum OD450 value” was determined as 3.47 OD450.
